Laboratory results taken from article PMC2933242.

Molecular target: T1, ERRα (estrogen-related receptor alpha) (UniProt P11474)
T1 sequence: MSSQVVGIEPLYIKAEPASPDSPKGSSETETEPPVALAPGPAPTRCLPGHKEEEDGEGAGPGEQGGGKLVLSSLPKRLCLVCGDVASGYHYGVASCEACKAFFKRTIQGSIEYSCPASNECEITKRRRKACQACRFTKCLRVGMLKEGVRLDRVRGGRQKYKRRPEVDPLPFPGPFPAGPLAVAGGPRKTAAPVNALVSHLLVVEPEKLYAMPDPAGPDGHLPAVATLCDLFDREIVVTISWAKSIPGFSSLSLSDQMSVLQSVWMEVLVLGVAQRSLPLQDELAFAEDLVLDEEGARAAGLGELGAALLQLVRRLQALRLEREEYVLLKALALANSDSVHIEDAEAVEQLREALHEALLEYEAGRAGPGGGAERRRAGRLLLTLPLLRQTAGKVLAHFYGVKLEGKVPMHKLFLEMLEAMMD
Assay: competition
Settings: 10-, 50-, EMSA with 15,000 cpm probe per reaction, buffer, salt, pH and temperature not given (as in ref 28)

Sequence | binding signal (fold IC50 (reference)) (unlabeled G vs 32P G probe, 100-fold excess) | binding signal (fold IC50 (A competitor / G competitor)) (vs 32P G probe, 100-fold excess of competitor)
GATCTAGCTCCTGCAGGTTCTCAAGGTTGTAGCCCGCACCCTGCTGATC (double strand) [PPARA -54,642 G probe (with -54,645 C)] | 1 | –
GATCTAGCTCCTGCAGGTTCTCAAGGTTGTAGTCCACACCCTGCTGATC (double strand) [PPARA -54,642 A probe (with -54,645 T)] | – | 2.3
